Source: article PMC4052671, “Cloning, expression and characterization of a versatile Baeyer-Villiger monooxygenase from Dietzia sp. D5” (AMB Express, 2014)

What was measured:
[1] = target: T1, BVMO4 (Dietzia sp. D5, UniProt U5S003, P2A); assay: activity recovery of purified enzyme on FAD addition; type: biochemical; settings: FAD added to 10 μM after Ni-NTA purification; phenylacetone as substrate; pH 7.5
T1 construct: full length, 612 residues; His-tagged in pET-22b(+) (NcoI/NotI); E. coli BL21-CodonPlus(DE3)-RP; Ni-NTA; about 75 kDa on SDS-PAGE, predicted 72 kDa; FAD added after purification

[2] = test system: CC(=O)Cc1ccccc1; assay: purified protein; type: biochemical, Dietzia sp. D5; settings: co-substrate NADPH (60 μM in the standard assay), 50 mM sodium phosphate pH 7.5, 10 mM KCl, 25 °C
[3] = substrate: CC1CCCCC1=O; assay: purified protein; type: biochemical, Dietzia sp. D5; settings: co-substrate NADPH (60 μM in the standard assay), 50 mM sodium phosphate pH 7.5, 10 mM KCl, 25 °C
[4] = substrate: NC(=O)C1=CN([C@@H]2O[C@H](COP(=O)(O)OP(=O)(O)OC[C@H]3O[C@@H](n4cnc5c(N)ncnc54)[C@H](OP(=O)(O)O)[C@@H]3O)[C@@H](O)[C@H]2O)C=CC1; assay: purified protein; type: biochemical, Dietzia sp. D5; settings: NADPH varied, fixed ketone substrate not stated, 50 mM sodium phosphate pH 7.5, 10 mM KCl, 25 °C, varied: cofactor

## Cc1cc2nc3c(=O)[nH]c(=O)nc-3n(C[C@H](O)[C@H](O)[C@H](O)COP(=O)(O)OP(=O)(O)OC[C@H]3O[C@@H](n4cnc5c(N)ncnc54)[C@H](O)[C@@H]3O)c2cc1C [FAD]
[1]
  activity recovery of purified enzyme on FAD addition: The enzyme lost its activity during the purification process but was recovered upon addition of FAD

## BVMO4 (Dietzia sp. D5; P2A)
[2]
  Km: 829 ± 163 µM
  Vmax: 4.74 µM/min
  kcat: 0.634 ± 0.104 s⁻¹
  kcat/Km: 770 ± 30 M⁻¹ s⁻¹

B1: BVMO4 (Dietzia sp. D5; P2A) (protein)
chain: MAFTLPESKIAIDIDFDPDHLRQRFEADKQARERKDQLAQFQGLDDVLEVDDSDPFSEPITREPVTEELDALVLGGGFGGLTAGAYLTQNGVENFRLVEYGGDFGGTWYWNRYPGVQCDIESHIYMPLLEETGYVPSQRYADGSEIFEHAQRIGRHYGLYDRTYFQTRATHARWDEQIQRWEVTTDRGDRFVTRVLLRSNGALTKPQLPKVPGIGDFEGKIFHTSRWDYGYTGGSAAGDLAHLRDKRVAVVGTGATGVQVVPYLAQDAKELVVVQRTPSVVQPRNNRKTDPEWVASLTPGWQYERHDNFNGIISGHEVEGNLVDDGWTHLFPELTGQHLVDVPVGELPEGDQALVAELADMNLLMSAHARVDSIVTDPATADGLKPWFGYMCKRPCFNDEYLEAFNRPNVTLAASPAGIDGITSSGIVVAGTHYEVDCIIFATGFETGSGPAGIYGYDVIGREGHSMQEYFSEGARTFHGFFTHGFPNFVELGMSQTAYYVNFVYMLDRKARHAARLVRHLLDSGIGTFEPTAEAEADWVAEVRRSNEPREAYWGACTPGYYNGQGEVSKAVFRDVYNSSEIDFWNMIEAWWNSGRFEGLVFEPARDAVPVA
notes: full length, 612 residues; His-tagged in pET-22b(+) (NcoI/NotI); E. coli BL21-CodonPlus(DE3)-RP; Ni-NTA; about 75 kDa on SDS-PAGE, predicted 72 kDa; FAD added after purification
[3]
  Km: 507 ± 142 µM
  Vmax: 3.07 µM/min
  kcat: 0.37 ± 0.095 s⁻¹
  kcat/Km: 730 ± 20 M⁻¹ s⁻¹
[4]
  Km: 11 ± 2 µM
  Vmax: 4.2 µM/min
  kcat: 0.507 ± 0.057 s⁻¹
  kcat/Km: 45100 ± 1520 M⁻¹ s⁻¹
